Two substances from US20250250357A1 can be followed below.

The target in experiment [1] is human MSLN-R2-his protein (human) (UniProt Q13421). Briefly: ELISA, coated MSLN-R2. (In general: In an ELISA, binding on a coated surface is turned into a signal by an enzyme label.)
In experiment [2] the target is human MSLN-R3-3 polypeptide (human). The experiment in a line: ELISA; antibody 1 nM.
The target of experiment [3] is human MSLN protein, endogenously expressed on Hela and OVCAR3 cells (human) (UniProt Q13421). Briefly: FACS on OVCAR3 cells; antibody […].
human MSLN protein, endogenously expressed on Hela and OVCAR3 cells (human), sequence (Q13421 other isoform, or with tags, fused parts or gaps): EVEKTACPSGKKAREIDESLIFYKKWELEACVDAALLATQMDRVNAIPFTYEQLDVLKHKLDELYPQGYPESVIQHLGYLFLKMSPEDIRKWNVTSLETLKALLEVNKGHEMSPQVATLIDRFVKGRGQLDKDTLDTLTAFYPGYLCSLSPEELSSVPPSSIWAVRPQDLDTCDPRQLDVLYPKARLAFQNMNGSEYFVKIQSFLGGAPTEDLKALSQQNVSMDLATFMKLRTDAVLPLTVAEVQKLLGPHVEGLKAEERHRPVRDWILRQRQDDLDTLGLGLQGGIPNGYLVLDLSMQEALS
For experiment [4] the target is unchanged. Briefly: FACS on OVCAR3 cells; antibody 4 nM.
Experiment [5] has the same target. The experiment in a line: FACS on OVCAR3 cells; antibody 20 nM.
Experiment [6] shares this target. The experiment in a line: FACS on OVCAR3 cells; antibody 0.8 nM.
Experiment [7] shares this target. The experiment in a line: FACS on OVCAR3 cells; antibody 100 nM.
Experiment [8] has the same target. Briefly: FACS on OVCAR3 cells; antibody 0.032 nM.
For experiment [9] the target is unchanged. The experiment in a line: FACS on OVCAR3 cells; antibody 0.0064 nM.
For experiment [10] the target is unchanged. The experiment in a line: FACS on OVCAR3 cells; antibody 0.00128 nM.
The target of experiment [11] is human MSLN full-length protein (NCBI: AAH09272.1) on stably transfected CHO-K1 or HEK293T cells (human) (UniProt Q13421). Briefly: FACS on CHO-K1-hMSLN-2C8 cells; antibody […].
Experiment [12] shares this target. Briefly: FACS on CHO-K1-hMSLN-2C8 cells; antibody 4 nM.
Experiment [13] has the same target. The experiment in a line: FACS on CHO-K1-hMSLN-2C8 cells; antibody 20 nM.
Experiment [14] shares this target. The experiment in a line: FACS on CHO-K1-hMSLN-2C8 cells; antibody 0.8 nM.
The target is the same in experiment [15]. The experiment in a line: FACS on CHO-K1-hMSLN-2C8 cells; antibody 100 nM.
Experiment [16] has as its target monkey MSLN full-length protein (NCBI: XP_028696439.1) on HEK293T cells (monkey). Briefly: FACS on HEK293T-monkey MSLN cells; antibody […].
The target is the same in experiment [17]. Briefly: FACS on HEK293T-monkey MSLN cells; antibody 4 nM.
The target of experiment [18] is human MSLN full-length protein (NCBI: AAH09272.1) on stably transfected CHO-K1 or HEK293T cells (human) (UniProt Q13421). Briefly: FACS on CHO-K1-hMSLN-2C8 cells; antibody 0.032 nM.
Experiment [19] addresses monkey MSLN full-length protein (NCBI: XP_028696439.1) on HEK293T cells (monkey). The experiment in a line: FACS on HEK293T-monkey MSLN cells; antibody 20 nM.
In experiment [20] the target is human MSLN full-length protein (NCBI: AAH09272.1) on stably transfected CHO-K1 or HEK293T cells (human) (UniProt Q13421). The experiment in a line: FACS on CHO-K1-hMSLN-2C8 cells; antibody 0.0064 nM.
The target in experiment [21] is monkey MSLN full-length protein (NCBI: XP_028696439.1) on HEK293T cells (monkey). The experiment in a line: FACS on HEK293T-monkey MSLN cells; antibody 0.8 nM.
The target is the same in experiment [22]. The experiment in a line: FACS on HEK293T-monkey MSLN cells; antibody 100 nM.
Experiment [23] concerns the target human MSLN full-length protein (NCBI: AAH09272.1) on stably transfected CHO-K1 or HEK293T cells (human) (UniProt Q13421). The experiment in a line: FACS on CHO-K1-hMSLN-2C8 cells; antibody 0.00128 nM.
Experiment [24] concerns the target monkey MSLN full-length protein (NCBI: XP_028696439.1) on HEK293T cells (monkey). Briefly: FACS on HEK293T-monkey MSLN cells; antibody 0.032 nM.
The target is the same in experiment [25]. The experiment in a line: FACS on HEK293T-monkey MSLN cells; antibody 0.0064 nM.
For experiment [26] the target is unchanged. The experiment in a line: FACS on HEK293T-monkey MSLN cells; antibody 0.00128 nM.

human MSLN-R2-his protein (human), sequence (Q13421 other isoform, or with tags, fused parts or gaps): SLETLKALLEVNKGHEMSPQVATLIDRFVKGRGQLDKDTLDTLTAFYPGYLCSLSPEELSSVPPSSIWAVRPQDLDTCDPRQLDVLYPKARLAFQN

In the case of “Tab108 (YP218, scFv-hIgG1 Fc) (Fc fusion)”, the OD450 at 0.0001 nM in [1] is 0.03 OD450.
The substance “hIgG1 (human IgG1 subtype control of Example 1) (antibody)” gave an OD450 nm in [2] of 0.06. For the same substance, the FACS fluorescence intensity in [3] was found to be 74; in [4], 74; in experiment [5], 78; in experiment [6] it was 76; in experiment [7], 93; in experiment [8], 75. Besides, the FACS fluorescence intensity in experiment [9] worked out at 74; in [10], 75; in experiment [11], 59; in [12], 110; in [13], 156; in [14], 80. In addition, the FACS fluorescence intensity is 72 in experiment [15]; 85 in experiment [16]; 85 in experiment [17]; 59 in experiment [18]; 84 in experiment [19]; 65 in experiment [20]. Moreover, the FACS fluorescence intensity worked out at 87 in [21]; 127 in experiment [22]; 116 in experiment [23]; 125 in experiment [24]; 85 in experiment [25]; 84 in experiment [26].
